Experimental data: PMC3915059 (Archives of biochemistry and biophysics, 2013)

Key:
[1] = target: T1, Δ^1-pyrroline-5-carboxylate dehydrogenase (MmP5CDH, ALDH4A1) (Mus musculus, UniProt Q8CHT0); assay: steady-state inhibition kinetics, NADH production at […] nm, competitive model; assay type: biochemical
T1 sequence (Q8CHT0 21-562): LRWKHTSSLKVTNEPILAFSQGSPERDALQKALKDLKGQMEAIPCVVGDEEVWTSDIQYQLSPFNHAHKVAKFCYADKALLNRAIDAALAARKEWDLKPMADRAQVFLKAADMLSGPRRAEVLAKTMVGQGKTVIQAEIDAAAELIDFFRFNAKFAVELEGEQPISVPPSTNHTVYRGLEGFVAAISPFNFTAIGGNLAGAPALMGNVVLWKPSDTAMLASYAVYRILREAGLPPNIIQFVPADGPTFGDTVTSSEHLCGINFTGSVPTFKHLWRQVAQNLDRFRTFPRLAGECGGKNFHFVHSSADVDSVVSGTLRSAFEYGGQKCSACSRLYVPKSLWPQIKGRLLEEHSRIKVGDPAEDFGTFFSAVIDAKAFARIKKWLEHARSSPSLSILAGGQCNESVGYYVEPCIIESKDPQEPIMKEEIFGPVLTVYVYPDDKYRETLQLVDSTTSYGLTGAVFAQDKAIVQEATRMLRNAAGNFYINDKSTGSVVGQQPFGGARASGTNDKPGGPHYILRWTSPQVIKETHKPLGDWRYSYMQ

[2] = target: T1, Δ^1-pyrroline-5-carboxylate dehydrogenase (MmP5CDH, ALDH4A1); assay: X-ray crystal structure; assay type: biochemical
purified protein = substrate: O=CCCC(=O)O; assay: purified protein; settings: NAD+ aldehyde substrate site; 20.0 °C

`N[C@@H](CCC(=O)O)C(=O)O` [L-glutamate] gave a Ki [1] of 12 mM.

`O=CC(=O)O` [compound 4, glyoxylate] was tested, and the Ki [2] was 0.27 mM.

B1: Δ^1-pyrroline-5-carboxylate dehydrogenase (MmP5CDH, ALDH4A1) (Mus musculus) (protein)
chain: T1 sequence (Q8CHT0 21-562)
B1 gave a Km (purified protein) of 26 ± 2 µM, a kcat (purified protein) of 0.16 s⁻¹ and a kcat/Km (purified protein) of 6200 M⁻¹ s⁻¹.
